# Starred links: 1 amine or outer side, 2 acyl side, 3 side chain; linkers in the order of their positions; H or OH if unused. Non-standard residues stand in square brackets, D forms with d. No end group written: not given here. *: point of attachment. (iBu)Y = N-alpha-isobutyl-tyrosine, CC(C)CN([C@@H](Cc1ccc(O[*:3])cc1)C(=O)[*:2])[*:1]; Orn(N^δ-C3H7N) = ornithine-derived dimethylamidinium (N-delta-C3H7N); Dab(N^γ-C3H7N) = Dab-derived dimethylamidinium (N-gamma-C3H7N); dTyr(Me) = COc1ccc(C[C@@H](N[*:1])C(=O)[*:2])cc1; dNMeY = CN[C@H](Cc1ccc(O)cc1)C(=O)O; Tos = Cc1ccc(S(=O)(=O)*)cc1; Tfa = O=C(C(F)(F)F)*; Sar = CNCC(=O)O
# B1: Tos-G-I-R-V-Sar-NH2 (peptide)
# peptide: Tos-GIRV[Sar]-NH2
# SMILES: CC[C@H](C)[C@H](NC(=O)CNS(=O)(=O)c1ccc(C)cc1)C(=O)N[C@@H](CCCNC(=N)N)C(=O)N[C@H](C(=O)N(C)CC(N)=O)C(C)C
# B2: w-L-R-L-A-NH2 (peptide)
# peptide: [dW]LRLA-NH2
# modifications: N-terminus assumed
# SMILES: CC(C)C[C@H](NC(=O)[C@H](N)Cc1c[nH]c2ccccc12)C(=O)N[C@@H](CCCNC(=N)N)C(=O)N[C@@H](CC(C)C)C(=O)N[C@@H](C)C(N)=O
# Molecular target: human factor Xa (Enzyme Research Laboratories, Inc.) (human, UniProt P00742 41-179; P00742 235-488, limits assumed)
# Experiment: chromogenic FXa inhibition
# How it was run: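 Human FXa (0.5 nM) preincubated 10 min with inhibitor in TBS-P (pH 7.8, 200 mM NaCl, PEG-8000), then S-2765 added (140 μM). Initial hydrolysis rate read at 405 nm, 25° C.; IC50 by linear regression of relative rate vs log concentration.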
# Chain of human factor Xa (Enzyme Research Laboratories, Inc.) (P00742 41-179 limits assumed, chain 1 of 2): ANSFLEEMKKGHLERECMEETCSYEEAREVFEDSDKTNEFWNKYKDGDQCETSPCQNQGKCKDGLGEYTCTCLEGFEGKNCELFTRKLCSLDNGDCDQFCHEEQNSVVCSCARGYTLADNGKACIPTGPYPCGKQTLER
# Chain of human factor Xa (Enzyme Research Laboratories, Inc.) (P00742 235-488 limits assumed, chain 2 of 2): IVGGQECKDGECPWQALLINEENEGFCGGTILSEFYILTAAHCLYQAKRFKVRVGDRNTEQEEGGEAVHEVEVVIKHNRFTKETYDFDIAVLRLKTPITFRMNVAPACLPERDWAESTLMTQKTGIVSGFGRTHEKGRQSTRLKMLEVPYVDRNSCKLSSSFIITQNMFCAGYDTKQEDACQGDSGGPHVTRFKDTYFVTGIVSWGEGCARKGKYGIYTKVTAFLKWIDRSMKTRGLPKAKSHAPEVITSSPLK
row,Binder,Ki [µM]
1,[dTyr(Me)]IRLP-NH2 [y(Me)-I-R-L-P-NH2],< 100
2,XIRLP (N-(2-Me-Bzl) on Y1; C-term NH2) [(2-Me-Bzl)Y-I-R-L-P-NH2],< 100
3,YIRYRNPI-NH2 [Y-I-R-Y-R-N-P-I-NH2],< 100
4,YIRIYERE-NH2 [Y-I-R-I-Y-E-R-E-NH2],< 100
5,WIRNP-NH2 [W-I-R-N-P-NH2],< 100
6,WIRTP-NH2 [W-I-R-T-P-NH2],< 100
7,XIRLP (N-term Tfa; Y1=Y(Me) O-methyl tyrosine; C-term NH2) [Tfa-Y(Me)I-R-L-P-NH2],< 100
8,YIRLMEMT-NH2 [Y-I-R-L-M-E-M-T-NH2],< 100
9,YIRLP-NH2 [Y-I-R-L-P-NH2],< 100
10,XIRLP (N-(2-CF3-Bzl) on Y1; C-term NH2) [(2-CF3-Bzl)Y-I-R-L-P-NH2],< 100
11,YIRL-NH2 [Y-I-R-L-NH2],< 100
12,"XIRLP (N-term Ac; N-(2,3-DiMe-nPentyl) on Y1; Y1=Y(SO3H); C-term NH2) [Ac-(2,3-DiMe-nPentyl)Y(SO3H)-I-R-L-P-NH2]",< 100
13,YIRLPGLL-NH2 [Y-I-R-L-P-G-L-L-NH2],< 100
14,XIRLP (N-(Chx-CH2) on Y1; C-term NH2) [(Chx-CH2)Y-I-R-L-P-NH2],< 100
15,YIRLTKMW-NH2 [Y-I-R-L-T-K-M-W-NH2],< 100
16,"XIRLP (N-term Ac; N-(1,2,3,6-4H-Bzl) on Y1; Y1=Y(SO3H); C-term NH2) [Ac-(1,2,3,6-4H-Bzl)Y(SO3H)-I-R-L-P-NH2]",< 100
17,XIRLP (N-(2-Et-nBu) on Y1; C-term NH2) [(2-Et-nBu)Y-I-R-L-P-NH2],< 100
18,"XIRLP (N-term Ac; N-(3,3-DiMe-nBu) on Y1; C-term NH2) [Ac-(3,3-DiMe-nBu)Y-I-R-L-P-NH2]",< 100
19,WLRLAGGGGG-NH2 [W-L-R-L-A-G-G-G-G-G-NH2],< 100
20,WLRVAGGGGG-NH2 [W-L-R-V-A-G-G-G-G-G-NH2],< 100
21,XIRLP (N-term Ac; N-(2-Me-Bzl) on Y1; C-term NH2) [Ac-(2-Me-Bzl)Y-I-R-L-P-NH2],< 100
22,B1,< 100
23,"XIRLP (N-term Ac; N-(2,3-DiMe-nPentyl) on Y1; C-term NH2) [Ac-(2,3-DiMe-nPentyl)Y-I-R-L-P-NH2]",< 100
24,"XIRLP (Y1=Y(3,5-Br); C-term NH2) [Y(3,5-Br)-I-R-L-P-NH2]",< 100
25,WLRLA-NH2 [W-L-R-L-A-NH2],< 100
26,Tfa-[dY]IRLP-NH2 [Tfa-y-I-R-L-P-NH2],< 100
27,YIRVAQLY-NH2 [Y-I-R-V-A-Q-L-Y-NH2],< 100

row,Binder,Ki [µM]
1,YIREFSDY-NH2 [Y-I-R-E-F-S-D-Y-NH2],< 100
2,"XIRLP (N-term Ac; N-(1,2,3,6-4H-Bzl) on Y1; C-term NH2) [Ac-(1,2,3,6-4H-Bzl)Y-I-R-L-P-NH2]",< 100
3,Tfa-[(iBu)Y]I[Orn(N^δ-C3H7N)]LP-NH2 [Tfa-(iBu)Y-I-Orn(N^δ-C3H7N)-L-P-NH2],< 100
4,[dNMeY]IRLP-NH2 [(Me)y-I-R-L-P-NH2],< 100
5,XIRLP (N-term Ac; N-(2-Me-Bzl) on Y1; Y1=Y(SO3H); C-term NH2) [Ac-(2-Me-Bzl)Y(SO3H)-I-R-L-P-NH2],< 100
6,XIRLP (N-term Ac; N-(2-Me-nPentyl) on Y1; Y1=Y(SO3H); C-term NH2) [Ac-(2-Me-nPentyl)Y(SO3H)-I-R-L-P-NH2],< 100
7,YIRVMNHR-NH2 [Y-I-R-V-M-N-H-R-NH2],< 100
8,XIRLP (N-term Ac; N-(2-Me-nBu) on Y1; Y1=Y(SO3H); C-term NH2) [Ac-(2-Me-nBu)Y(SO3H)-I-R-L-P-NH2],< 100
9,"XIRLP (N-term Ac; N-(3,3-DiMe-nPentyl) on Y1; Y1=Y(SO3H); C-term NH2) [Ac-(3,3-DiMe-nPentyl)Y(SO3H)-I-R-L-P-NH2]",< 100
10,XIRLP (N-term Ac; N-(2-CF3-Bzl) on Y1; C-term NH2) [Ac-(2-CF3-Bzl)Y-I-R-L-P-NH2],< 100
11,Tfa-[(iBu)Y]I[Dab(N^γ-C3H7N)]LP-NH2 [Tfa-(iBu)Y-I-Dab(N^γ-C3H7N)-L-P-NH2],< 100
12,YIRLAA-NH2 [Y-I-R-L-A-A-NH2],< 100
13,YLRFP-NH2 [Y-L-R-F-P-NH2],< 100
14,XIRLP (N-term Ac; N-(2Et-nBu) on Y1; C-term NH2) [Ac-(2Et-nBu)Y-I-R-L-P-NH2],< 100
15,YRYPRDRN-NH2 [Y-R-Y-P-R-D-R-N-NH2],< 100
16,"XIRLP (N-(3,3-DiMe-nBu) on Y1; C-term NH2) [(3,3-DiMe-nBu)Y-I-R-L-P-NH2]",< 100
17,TFGYIRKA-NH2 [T-F-G-Y-I-R-K-A-NH2],< 100
18,Tfa-YIRLP-NH2 [Tfa-Y-I-R-L-P-NH2],< 100
19,XIRLP (N-term Ac; N-(2-CF3-Bzl) on Y1; Y1=Y(SO3H); C-term NH2) [Ac-(2-CF3-Bzl)Y(SO3H)-I-R-L-P-NH2],< 100
20,"XIRLP (N-term Ac; N-(3,3-DiMe-nBu) on Y1; Y1=Y(SO3H); C-term NH2) [Ac-(3,3-DiMe-nBu)Y(SO3H)-I-R-L-P-NH2]",< 100
21,WFREMGGGGG-NH2 [W-F-R-E-M-G-G-G-G-G-NH2],< 100
22,XIRLP (N-(2-Me-nBu) on Y1; C-term NH2) [(2-Me-nBu)Y-I-R-L-P-NH2],< 100
23,YIRLAAF-NH2 [Y-I-R-L-A-A-F-NH2],< 100
24,XIRLP (N-(2-Me-nPentyl) on Y1; C-term NH2) [(2-Me-nPentyl)Y-I-R-L-P-NH2],< 100
25,"XIRLP (Y1=Y(3,5-I); C-term NH2) [Y(3,5-I)-I-R-L-P-NH2]",< 100
26,B2,< 100
27,YIRLAAFT-NH2 [Y-I-R-L-A-A-F-T-NH2],< 100

# Reference: patent US6759384 (AVENTIS PHARMACEUTICALS, dated 2004)
